Source: the RNAGym collection of RNA variant scans (doi:10.1093/molbev/msab373)

B1: Azoarcus group I ribozyme (parent)
chain: GUGCCUUGCGCCGGGAAACCACGCAAGGGAUGGUGUCAAAUUCGGCGAAACCUAAGCGCCCGCCCGGGCGUAUGGCAACGCCGAGCCAAGCUUCGGCGCCUGCGCCGAUGAAGGUGUAGAGACUAGACGGCACCCACCUAAGGCAAACGCUAUGGUGAAGGCAUAGUCCAGGGAGUGGCGAAAGUCACACAAACCGG

Variants of: B1
Assay: reverse-splicing fitness (ratio to wild type); higher = more active; in vitro selection; Mg2+ level not given
Summary of the method: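 An in vitro group I ribozyme library with randomized positions was T7-transcribed and gel-purified. In triplicate, 10 pmol RNA in EPPS pH 7.5 was reacted with 50 pmoles of a 30-nt RNA substrate for 1 h at 37 °C across several added MgCl2 levels (1–48 mM), then stopped with EDTA. Products were reverse transcribed from a substrate-complementary primer, PCR-amplified and sequenced (HiSeq 4000). Fitness is a variant's read proportion after selection over that before, normalised to wild type.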
Variant GUGCCUUGCGCCGGGAAACCACGCAAGGGAUGGUGUCAAAUUCGGCGAAACCUAAGCGCCCGCCCGGGCGUAUGGCAACGCGGAGCCAAGCUUCGGCGCCUGCGCCGAUGGAGGUGUAGCGACUAGACGGCACCCACCUAAGGCGAACGCUAUGGUGAAGGCAUAGUCGAGGGAGCGGCGAAAGUCACACAAACCGG [C82G A111G A120C A145G C169G U176C] has a reverse-splicing fitness of 0.0188. GUGCCUUGCGCCGGGAAACCACGCAAGGGAUGGUGUCAAAUUCGGCGAAACCUAAGCGCCCGCCCGGGCGUAUGGCAACGCGGAGCCAAGCUUCGGCGCCUGCGCCGAUGGAGGUGUAGCGACUAGACGGCACCCACCUAAGGCGAACGCUAUGGUGAAGGCAUAGUCGAGGGAGGGGCGAAAGUCACACAAACCGG [C82G A111G A120C A145G C169G U176G] gave a reverse-splicing fitness of 0.00476. Work on GUGCCUUGCGCCGGGAAACCACGCAAGGGAUGGUGUCAAAUUCGGCGAAACCUAAGCGCCCGCCCGGGCGUAUGGCAACGCGGAGCCAAGCUUCGGCGCCUGCGCCGAUGGAGGUGUAGCGACUAGACGGCACCCACCUAAGGCGAACGCUAUGGUGAAGGCAUAGUCGAGGGAGAGGCGAAAGUCACACAAACCGG [C82G A111G A120C A145G C169G U176A] yielded a reverse-splicing fitness of 0.0158. Work on GUGCCUUGCGCCGGGAAACCACGCAAGGGAUGGUGUCAAAUUCGGCGAAACCUAAGCGCCCGCCCGGGCGUAUGGCAACGCGGAGCCAAGCUUCGGCGCCUGCGCCGAUGGAGGUGUAGCGACUAGACGGCACCCACCUAAGGCGAACGUUAUGGUGAAGGCAUAGUCCAGGGAGUGGCGAAAGUCACACAAACCGG [C82G A111G A120C A145G C150U] yielded a reverse-splicing fitness of 0.0625. GUGCCUUGCGCCGGGAAACCACGCAAGGGAUGGUGUCAAAUUCGGCGAAACCUAAGCGCCCGCCCGGGCGUAUGGCAACGCGGAGCCAAGCUUCGGCGCCUGCGCCGAUGGAGGUGUAGCGACUAGACGGCACCCACCUAAGGCGAACGCUAUGGUGAAGGCAUAGUCCAGGGAGCGGCGAAAGUCACACAAACCGG [C82G A111G A120C A145G U176C] showed a reverse-splicing fitness of 0.0418. GUGCCUUGCGCCGGGAAACCACGCAAGGGAUGGUGUCAAAUUCGGCGAAACCUAAGCGCCCGCCCGGGCGUAUGGCAACGCGGAGCCAAGCUUCGGCGCCUGCGCCGAUGGAGGUGUAGCGACUAGACGGCACCCACCUAAGGCGAACGCUAUGGUGAAGGCAUAGUCCAGGGAGAGGCGAAAGUCACACAAACCGG [C82G A111G A120C A145G U176A] gave a reverse-splicing fitness of 0.0236. Work on GUGCCUUGCGCCGGGAAACCACGCAAGGGAUGGUGUCAAAUUCGGCGAAACCUAAGCGCCCGCCCGGGCGUAUGGCAACGCGGAGCCAAGCUUCGGCGCCUGCGCCGAUGGAGGUGUAGCGACUAGACGGCACCCACCUAAGGCGAACGCUAUGGUGAAGGCAUAGUCAAGGGAGCGGCGAAAGUCACACAAACCGG [C82G A111G A120C A145G C169A U176C] yielded a reverse-splicing fitness of 0.0188. GUGCCUUGCGCCGGGAAACCACGCAAGGGAUGGUGUCAAAUUCGGCGAAACCUAAGCGCCCGCCCGGGCGUAUGGCAACGCGGAGCCAAGCUUCGGCGCCUGCGCCGAUGGAGGUGUAGCGACUAGACGGCACCCACCUAAGGCGAACGCUAUGGUGAAGGCAUAGUCAAGGGAGGGGCGAAAGUCACACAAACCGG [C82G A111G A120C A145G C169A U176G] gave a reverse-splicing fitness of 0.00503. Work on GUGCCUUGCGCCGGGAAACCACGCAAGGGAUGGUGUCAAAUUCGGCGAAACCUAAGCGCCCGCCCGGGCGUAUGGCAACGCGGAGCCAAGCUUCGGCGCCUGCGCCGAUGGAGGUGUAGCGACUAGACGGCACCCACCUAAGGCGAACGCUAUGGUGAAGGCAUAGUCAAGGGAGAGGCGAAAGUCACACAAACCGG [C82G A111G A120C A145G C169A U176A] yielded a reverse-splicing fitness of 0.0151. GUGCCUUGCGCCGGGAAACCACGCAAGGGAUGGUGUCAAAUUCGGCGAAACCUAAGCGCCCGCCCGGGCGUAUGGCAACGCGGAGCCAAGCUUCGGCGCCUGCGCCGAUGGAGGUGUAGCGACUAGACGGCACCCACCUAAGGCGAACGCUAUGGUGAAGGCAUAGUCUAGGGAGGGGCGAAAGUCACACAAACCGG [C82G A111G A120C A145G C169U U176G] gave a reverse-splicing fitness of 0.00492. With GUGCCUUGCGCCGGGAAACCACGCAAGGGAUGGUGUCAAAUUCGGCGAAACCUAAGCGCCCGCCCGGGCGUAUGGCAACGCGGAGCCAAGCUUCGGCGCCUGCGCCGAUGGAGGUGUAGCGACUAGACGGCACCCACCUAAGGCGAACGCUAUGGUGAAGGCAUAGUCUAGGGAGCGGCGAAAGUCACACAAACCGG [C82G A111G A120C A145G C169U U176C] the reverse-splicing fitness was 0.0147. In the case of GUGCCUUGCGCCGGGAAACCACGCAAGGGAUGGUGUCAAAUUCGGCGAAACCUAAGCGCCCGCCCGGGCGUAUGGCAACGCGGAGCCAAGCUUCGGCGCCUGCGCCGAUGGAGGUGUAGCGACUAGACGGCACCCACCUAAGGCGAACGCUAUGGUGAAGGCAUAGUCUAGGGAGAGGCGAAAGUCACACAAACCGG [C82G A111G A120C A145G C169U U176A], the reverse-splicing fitness is reported as 0.0142. GUGCCUUGCGCCGGGAAACCACGCAAGGGAUGGUGUCAAAUUCGGCGAAACCUAAGCGCCCGCCCGGGCGUAUGGCAACGCGGAGCCAAGCUUCGGCGCCUGCGCCGAUGGAGGUGUAGCGACUAGACGGCACCCACCUAAGGCGAACGCUAUGGUGAAGGCAUAGUCGAGGGAGUGGCGAAAGUCACACAAACCGG [C82G A111G A120C A145G C169G] showed a reverse-splicing fitness of 0.0079. In the case of GUGCCUUGCGCCGGGAAACCACGCAAGGGAUGGUGUCAAAUUCGGCGAAACCUAAGCGCCCGCCCGGGCGUAUGGCAACGCGGAGCCAAGCUUCGGCGCCUGCGCCGAUGGAGGUGUAGCGACUAGACGGCACCCACCUAAGGCGAACGCUAUGGUGAAGGCAUAGUCUAGGGAGUGGCGAAAGUCACACAAACCGG [C82G A111G A120C A145G C169U], the reverse-splicing fitness is reported as 0.015. GUGCCUUGCGCCGGGAAACCACGCAAGGGAUGGUGUCAAAUUCGGCGAAACCUAAGCGCCCGCCCGGGCGUAUGGCAACGCGGAGCCAAGCUUCGGCGCCUGCGCCGAUGGAGGUGUAGCGACUAGACGGCACCCACCUAAGGCGAACGCUAUGGUGAAGGCAUAGUCAAGGGAGUGGCGAAAGUCACACAAACCGG [C82G A111G A120C A145G C169A] showed a reverse-splicing fitness of 0.00771.
